In US20160208274:

Target: fibrin (formed in the agarose plate from fibrinogen and thrombin)

Protein	fibrin plate assay (fibrin degradation; lytic area on the fibrin plate)
recombinant human tissue plasminogen activator (t-PA) from transgenic T1 tobacco seeds, with C-terminal 6xHis tag and KDEL (protein) SYQVICRDEKTQMIYQQHQSWLRPVLRSNRVEYCWCNSGRAQCHSVPVKSCSEPRCFNGGTCQQALYFSYFVCQCPEGFAGKCCEIDTRATCYEDQGISYRGTWSTAESGAECTNWNSSALAQKPYSGRRPDAIRLGLGNHNYCRNPDRDSKPWCYVFKAGKYSSEFCSTPACSEGNSDCYFGNGSAYRGTHSLTESGASCLPWNSMILIGKVYTAQNPSAQALGLGKHNYCRNPDGDAKPWCHVLKNRRLTWEYCDVPSCSTCGLRQYSQPQFRIKGGLFADIASHPWQAAIFAKHRRSPGERFLCGGILISSCWILSAAHCFQERFPPHHLTVILGRTYRVVPGEEEQKFEVEKYIVHKEFDDDTYDNDIALLQLKSDSSRCAQESSVVRTVCLPPADLQLPDWTECELSGYGKHEALSPFYSERLKEAHVRLYPSSRCTSQHLLNRTVTDNMLCAGDTRSGGPQANLHDACQGDSGGPLVCLNDGRMTLVGIISWGLGCGQKDVPGVYTKVTNYLDWIRDNMRPHHHHHHKDEL	recombinant t-PA from T1 seeds and DSPAα1 from T3 homologous seeds can degrade fibrin
recombinant Desmodus rotundus salivary plasminogen activator alpha1 (DSPAα1) from transgenic T3 tobacco seeds, with C-terminal 6xHis tag and KDEL (protein) AYGVACKDEITQMTYRRQESWLRPEVRSKRVEHCQCDRGQARCHTVPVNSCSEPRCFNGGTCWQAVYFSDFVCQCPAGYTGKRCEVDTRATCYEGQGVTYRGTWSTAESRVECINWNSSLLTRRTYNGRMPDAFNLGLGNHNYCRNPNGAPKPWCYVIKAGKFTSESCSVPVCSKATCGLRKYKEPQLHSTGGLFTDITSHPWQAAIFAQNRRSSGERFLCGGILISSCWVLTAAHCFQESYLPDQLKVVLGRTYRVKPGEEEQTFKVKKYIVHKEFDDDTYNNDIALLQLKSDSPQCAQESDSVRAICLPEANLQLPDWTECELSGYGKHKSSSPFYSEQLKEGHVRLYPSSRCAPKFLFNKTVTNNMLCAGDTRSGEIYPNVHDACQGDSGGPLVCMNDNHMTLLGIISWGVGCGEKDVPGVYTKVTNYLGWIRDNMHLHHHHHHKDEL	recombinant t-PA from T1 seeds and DSPAα1 from T3 homologous seeds can degrade fibrin
